Laboratory results as given in doi:10.1101/2025.10.01.679806 (bioRxiv, 2025).

Molecular target: the molecule itself
Assay: methyl-TROSY NMR

B1: Bpa 45-153 (domain or fragment)
chain: AKVMRIGTMIKQLLEEVRAAPLDEASRNRLRDIHATSIRELEDGLAPELREELDRLTLPFNEDAVPSDAELRIAQAQLVGWLEGLFHGIQTALFAQQMAARAQLQQMRQ
  stoichiometry N: 4
